The source of these data is patent US20050261190A1.

The assay deals with multiubiquitinated proteins (of HEK293T cells). Nature of the assay: cell-based or functional assay.

Chain of Flag-tagged hFAF1 (human Fas associated factor 1, full form) (Q9UNN5 other isoform, or with tags, fused parts or gaps): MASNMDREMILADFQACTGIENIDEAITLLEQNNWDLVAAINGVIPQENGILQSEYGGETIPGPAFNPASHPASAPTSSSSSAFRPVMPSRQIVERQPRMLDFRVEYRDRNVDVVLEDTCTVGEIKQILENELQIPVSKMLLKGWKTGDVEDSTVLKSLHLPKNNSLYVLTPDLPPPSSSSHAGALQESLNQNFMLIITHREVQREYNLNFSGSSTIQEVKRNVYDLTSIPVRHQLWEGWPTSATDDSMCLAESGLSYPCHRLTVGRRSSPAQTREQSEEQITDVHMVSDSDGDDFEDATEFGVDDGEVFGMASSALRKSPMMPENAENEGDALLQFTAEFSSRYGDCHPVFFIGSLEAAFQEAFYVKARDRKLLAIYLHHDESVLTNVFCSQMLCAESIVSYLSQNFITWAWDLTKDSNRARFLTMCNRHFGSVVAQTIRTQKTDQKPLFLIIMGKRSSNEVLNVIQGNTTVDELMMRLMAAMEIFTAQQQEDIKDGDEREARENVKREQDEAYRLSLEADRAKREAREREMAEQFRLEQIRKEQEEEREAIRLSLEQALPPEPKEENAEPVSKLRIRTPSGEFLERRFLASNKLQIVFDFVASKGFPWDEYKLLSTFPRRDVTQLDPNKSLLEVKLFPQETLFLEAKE

In turn, “Flag-tagged hFAF1 (human Fas associated factor 1, full form) (from UniProt Q9UNN5 1-650)” yielded a mean fluorescence intensity of the Ub^G76V-GFP reporter (flow cytometry) of 2 fold.
